Measured values published in the supplement of paper PMC9112550, “Optimization of the antimicrobial peptide Bac7 by deep mutational scanning” (BMC Biology, 2022).

Tested on: Escherichia coli TOP10
Experiment: shrunken log2 fold change of peptide-encoding DNA abundance (4.5 h post-induction vs induction); higher = less antimicrobial activity (less host growth inhibition)
Details: time post-induction: 4.5 h; library: site-saturation at positions 5, 18, 19, 20
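Further: peptides expressed intracellularly from a pBAD plasmid library in pooled LB shake-flask culture, induced with 0.3% L-arabinose, DNA abundance read by NGS, three biological replicates, DESeq2 with apeglm shrinkage.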

Sequence	shrunken log2 fold change
RRIRCRPPRLPRPRPRPSVPPRP	-0.784
RRIRPRPPRLPRPRPRPVLTPRP	0.0816
RRIRKRPPRLPRPRPRPFCVPRP	0.706
RRIRCRPPRLPRPRPRPFHQPRP	-0.429
RRIRVRPPRLPRPRPRPSEVPRP	-0.138
RRIRIRPPRLPRPRPRPRALPRP	0.0988
RRIRNRPPRLPRPRPRPRSKPRP	0.0945
RRIRNRPPRLPRPRPRPATNPRP	-0.0513
RRIRLRPPRLPRPRPRPQLLPRP	-0.0176
RRIRNRPPRLPRPRPRPDLYPRP	-0.0459
RRIRDRPPRLPRPRPRPHSAPRP	0.0279
RRIRPRPPRLPRPRPRPPDYPRP	-0.107
RRIRKRPPRLPRPRPRPESNPRP	1.13
RRIRKRPPRLPRPRPRPSLSPRP	0.549
RRIRCRPPRLPRPRPRPWGEPRP	-0.0965
RRIRTRPPRLPRPRPRPSDNPRP	-0.697
RRIRARPPRLPRPRPRPMHPPRP	0.362
RRIRQRPPRLPRPRPRPSPGPRP	0.194
RRIRDRPPRLPRPRPRPRHAPRP	0.324
RRIRWRPPRLPRPRPRPMIIPRP	-0.0264
RRIRVRPPRLPRPRPRPNNPPRP	-0.352
RRIRSRPPRLPRPRPRPQCIPRP	-1.27
RRIRGRPPRLPRPRPRPDCWPRP	1.58
RRIRNRPPRLPRPRPRPDPLPRP	-0.0328
RRIRSRPPRLPRPRPRPMMPPRP	-0.0787

Sequence	shrunken log2 fold change
RRIRSRPPRLPRPRPRPLVQPRP	-0.0825
RRIRYRPPRLPRPRPRPDGAPRP	-0.0116
RRIRFRPPRLPRPRPRPVKVPRP	-0.297
RRIRVRPPRLPRPRPRPTPMPRP	0.259
RRIRIRPPRLPRPRPRPFSCPRP	-0.534
RRIRWRPPRLPRPRPRPIHPPRP	-0.117
RRIRWRPPRLPRPRPRPMLTPRP	0.391
RRIRMRPPRLPRPRPRPRRGPRP	1.09
RRIRERPPRLPRPRPRPLPMPRP	0.187
RRIRMRPPRLPRPRPRPEMSPRP	-0.00133
RRIRPRPPRLPRPRPRPPQKPRP	0.19
RRIRDRPPRLPRPRPRPHIQPRP	-0.53
RRIRERPPRLPRPRPRPEYWPRP	0.126
RRIRKRPPRLPRPRPRPWKRPRP	0.024
RRIRMRPPRLPRPRPRPVKNPRP	0.00715
RRIRDRPPRLPRPRPRPKWQPRP	0.276
RRIRTRPPRLPRPRPRPNMKPRP	-0.526
RRIRKRPPRLPRPRPRPTWPPRP	0.766
RRIRPRPPRLPRPRPRPLGDPRP	0.279
RRIRWRPPRLPRPRPRPLEQPRP	0.392
RRIRKRPPRLPRPRPRPGCNPRP	0.754
RRIRERPPRLPRPRPRPMLAPRP	0.193
RRIRYRPPRLPRPRPRPHWAPRP	-0.24
RRIRGRPPRLPRPRPRPFVYPRP	0.077
RRIRYRPPRLPRPRPRPVLAPRP	-0.037

Sequence	shrunken log2 fold change
RRIRNRPPRLPRPRPRPVCPPRP	-0.14
RRIRGRPPRLPRPRPRPSFQPRP	0.198
RRIRFRPPRLPRPRPRPHFAPRP	0.0808
RRIRYRPPRLPRPRPRPILIPRP	-0.256
RRIRWRPPRLPRPRPRPKLVPRP	0.00348
RRIRTRPPRLPRPRPRPAKHPRP	0.0349
RRIRDRPPRLPRPRPRPSELPRP	-0.184
RRIRKRPPRLPRPRPRPRQHPRP	0.499
RRIRMRPPRLPRPRPRPGPGPRP	2.09
RRIRGRPPRLPRPRPRPVSFPRP	0.392
RRIRIRPPRLPRPRPRPQLMPRP	-0.442
RRIRKRPPRLPRPRPRPFRTPRP	0.000407
RRIRQRPPRLPRPRPRPHGRPRP	-0.0154
RRIRIRPPRLPRPRPRPHHFPRP	-0.313
RRIRNRPPRLPRPRPRPMPKPRP	-0.0238
RRIRIRPPRLPRPRPRPHYYPRP	-0.413
RRIRSRPPRLPRPRPRPKAFPRP	-0.0206
RRIRWRPPRLPRPRPRPCRSPRP	0.0427
RRIRTRPPRLPRPRPRPYLLPRP	-0.654
RRIRQRPPRLPRPRPRPDLEPRP	-0.0293
RRIRYRPPRLPRPRPRPEGQPRP	0.0448
RRIRSRPPRLPRPRPRPDPQPRP	0.282
RRIRARPPRLPRPRPRPISEPRP	0.0696
RRIRNRPPRLPRPRPRPWLGPRP	0.0222
RRIRMRPPRLPRPRPRPSHPPRP	-0.0222

Sequence	shrunken log2 fold change
RRIRGRPPRLPRPRPRPNFCPRP	0.362
RRIRERPPRLPRPRPRPFDAPRP	-0.0912
RRIRRRPPRLPRPRPRPVKYPRP	-0.167
RRIRGRPPRLPRPRPRPMPSPRP	0.431
RRIRDRPPRLPRPRPRPDFSPRP	0.0345
RRIRPRPPRLPRPRPRPHCYPRP	-0.2
RRIRTRPPRLPRPRPRPNRFPRP	-0.00879
RRIRWRPPRLPRPRPRPYYPPRP	-1.09
RRIRDRPPRLPRPRPRPGWEPRP	0.00884
RRIRLRPPRLPRPRPRPETVPRP	0.0594
RRIRTRPPRLPRPRPRPSSEPRP	-0.0162
RRIRGRPPRLPRPRPRPHPSPRP	0.445
RRIRHRPPRLPRPRPRPSLHPRP	-0.652
RRIRNRPPRLPRPRPRPDMAPRP	-0.0639
RRIRRRPPRLPRPRPRPWRMPRP	0.00176
RRIRDRPPRLPRPRPRPVDMPRP	0.0154
RRIRKRPPRLPRPRPRPDTKPRP	-0.0643
RRIRMRPPRLPRPRPRPRLTPRP	1.13
RRIRCRPPRLPRPRPRPASKPRP	-0.438
RRIRFRPPRLPRPRPRPANSPRP	-0.448
RRIRPRPPRLPRPRPRPTGLPRP	0.156
RRIRNRPPRLPRPRPRPRQCPRP	0.0196
RRIRPRPPRLPRPRPRPDYRPRP	-0.321
RRIRNRPPRLPRPRPRPRALPRP	0.117
RRIRSRPPRLPRPRPRPIPIPRP	0.159

Sequence	shrunken log2 fold change
RRIRRRPPRLPRPRPRPWNSPRP	0.0625
RRIRKRPPRLPRPRPRPWVVPRP	0.423
RRIRKRPPRLPRPRPRPCNHPRP	-0.16
RRIRFRPPRLPRPRPRPNGAPRP	-0.105
RRIRYRPPRLPRPRPRPRKCPRP	-0.247
RRIRNRPPRLPRPRPRPQIWPRP	0.0573
RRIRTRPPRLPRPRPRPAIIPRP	-0.233
RRIRPRPPRLPRPRPRPWTAPRP	-0.305
RRIRFRPPRLPRPRPRPWMQPRP	-0.139
RRIRERPPRLPRPRPRPGSCPRP	-0.0703
RRIRCRPPRLPRPRPRPVENPRP	0.112
RRIRARPPRLPRPRPRPVYSPRP	-0.312
RRIRYRPPRLPRPRPRPPIWPRP	-0.0337
RRIRTRPPRLPRPRPRPVEWPRP	0.168
RRIRSRPPRLPRPRPRPDMTPRP	0.154
RRIRPRPPRLPRPRPRPWCVPRP	-0.133
RRIRDRPPRLPRPRPRPNYKPRP	-0.241
RRIRLRPPRLPRPRPRPEELPRP	0.068
RRIRPRPPRLPRPRPRPELWPRP	0.889
RRIRRRPPRLPRPRPRPVAKPRP	0.386
RRIRYRPPRLPRPRPRPALWPRP	-0.0105
RRIRARPPRLPRPRPRPQDDPRP	0.274
RRIRLRPPRLPRPRPRPCYKPRP	-0.133
RRIRHRPPRLPRPRPRPMVVPRP	0.00198
RRIRVRPPRLPRPRPRPEDYPRP	0.0316
